For the experiment, the target named is FGFR-1c expressed on BaF3 cells. The experiment can be described thus: cell-based or functional assay.

Data on one substance can be found in patent US20180265558A1.

Regarding “modified FGF-1 (S116R mutant protein) (from UniProt P05230 16-155) (ligand)”, the mitogenic potency on BaF3 cells expressing FGFR-1c, relative to wild-type FGF-1 (fold against wild-type FGF-1) was 10.
